Here are results for eight molecules from patent US10428140B2, “Anti-EphA4 antibody” (EISAI R&D MANAGEMENT CO., LTD., priority 2015, dated 2019).

Values joined by “and” are separate entries in the source; they are usually repeats but may differ in a detail not shown here. Equal values may be shown once.

Format in all cases: binding
Assay [1] has as its target T1, human EphA4 (Homo sapiens, UniProt P54764).
T1 construct: made in house; not restated for the human SEAP-His protein
Put plainly: Affinity of humanized antibodies by SPR (Biacore T200). Conditions: human EphA4 extracellular region-SEAP-His; for ka / kd: 1:1 binding model; for Kd: KD=kd/ka. The method, boiled down:
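Humanized antibodies captured on protein A chip (antibody A via immobilized rat anti-mouse IgG1) at about 30 to 60 RU in HBS-EP; human EphA4 extracellular region-SEAP-His injected single-cycle at 0.6 to 50 nM, 120 s association, 900 s dissociation. KD = kd/ka from 1:1 binding fits.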
In general terms: SPR reads the build-up and loss of mass on a sensor chip optically.

Assay [2] deals with T2, human EphA2 (Homo sapiens, UniProt P29317).
T2 construct: a protein of the extracellular region of each human Eph receptor fused with the SEAP protein and the His tag; made in house; host or cells: Expi293F cells (culture supernatant)
The assay can be described thus: Selectivity ELISA of humanized antibodies for human Eph receptor. The settings on record: coated protein 1 nM. The method, boiled down: (§1)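 Extracellular domains of human Eph receptors fused to SEAP-His were expressed in Expi293F cells for 5 days and captured from supernatant (1 nM final) on anti-His-coated plates. Humanized anti-EphA4 antibodies were incubated 1 h at room temperature, then HRP anti-IgG secondary, TMB substrate, and absorbance at 450 nm.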
On the technique in general: In an ELISA, binding on a coated surface is turned into a signal by an enzyme label.

Assay [3] deals with T3, human EphA6 (Homo sapiens, UniProt Q9UF33).
T3 construct: a protein of the extracellular region of each human Eph receptor fused with the SEAP protein and the His tag; made in house; host or cells: Expi293F cells (culture supernatant)
T3 sequence (Q9UF33 23-550 limits assumed): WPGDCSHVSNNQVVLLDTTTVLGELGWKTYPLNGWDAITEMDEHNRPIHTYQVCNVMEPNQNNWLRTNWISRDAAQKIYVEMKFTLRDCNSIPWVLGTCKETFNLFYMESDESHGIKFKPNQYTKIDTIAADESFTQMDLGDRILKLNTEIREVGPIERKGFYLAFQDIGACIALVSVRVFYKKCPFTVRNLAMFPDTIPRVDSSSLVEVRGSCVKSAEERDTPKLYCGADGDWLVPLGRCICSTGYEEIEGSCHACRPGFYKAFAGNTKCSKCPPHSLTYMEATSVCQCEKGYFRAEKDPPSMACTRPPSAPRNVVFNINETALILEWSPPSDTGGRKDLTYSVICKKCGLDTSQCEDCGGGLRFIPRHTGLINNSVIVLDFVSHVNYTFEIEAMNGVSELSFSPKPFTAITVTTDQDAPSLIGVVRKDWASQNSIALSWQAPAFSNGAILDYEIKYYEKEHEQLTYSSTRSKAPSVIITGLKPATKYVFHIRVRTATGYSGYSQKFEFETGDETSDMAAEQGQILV
Described as above. The settings on record: coated protein 1 nM. The gist of the method:
as §1

T1 sequence (P54764 20-547): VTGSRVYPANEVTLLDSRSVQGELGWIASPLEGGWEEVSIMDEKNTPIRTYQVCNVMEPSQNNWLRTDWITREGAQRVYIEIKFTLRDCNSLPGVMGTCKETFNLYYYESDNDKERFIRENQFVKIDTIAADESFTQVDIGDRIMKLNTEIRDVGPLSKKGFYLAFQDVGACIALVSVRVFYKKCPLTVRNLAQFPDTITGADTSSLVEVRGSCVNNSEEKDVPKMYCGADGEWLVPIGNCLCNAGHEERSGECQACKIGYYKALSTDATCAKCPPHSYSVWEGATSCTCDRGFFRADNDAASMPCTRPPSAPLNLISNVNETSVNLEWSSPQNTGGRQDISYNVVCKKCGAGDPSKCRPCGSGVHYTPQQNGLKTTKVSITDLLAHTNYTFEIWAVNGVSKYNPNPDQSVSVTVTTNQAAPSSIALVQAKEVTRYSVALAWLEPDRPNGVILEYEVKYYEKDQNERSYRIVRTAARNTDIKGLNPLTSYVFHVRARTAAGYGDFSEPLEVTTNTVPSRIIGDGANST
T2 sequence (P29317 24-537 limits assumed): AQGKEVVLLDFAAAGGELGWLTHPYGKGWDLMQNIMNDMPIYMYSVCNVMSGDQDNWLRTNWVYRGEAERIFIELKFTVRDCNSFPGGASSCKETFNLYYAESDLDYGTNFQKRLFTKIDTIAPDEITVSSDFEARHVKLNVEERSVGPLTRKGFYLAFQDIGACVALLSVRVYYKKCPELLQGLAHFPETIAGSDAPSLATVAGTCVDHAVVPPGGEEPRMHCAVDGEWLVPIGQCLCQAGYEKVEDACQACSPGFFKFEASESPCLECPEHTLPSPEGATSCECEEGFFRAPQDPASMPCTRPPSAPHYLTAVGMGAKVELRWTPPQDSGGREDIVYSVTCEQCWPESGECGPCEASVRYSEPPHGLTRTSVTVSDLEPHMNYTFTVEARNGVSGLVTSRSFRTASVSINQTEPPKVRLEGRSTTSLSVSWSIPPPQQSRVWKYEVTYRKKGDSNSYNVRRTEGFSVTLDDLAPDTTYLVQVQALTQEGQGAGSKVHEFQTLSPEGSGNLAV

B1: 73 (antibody, V domains shown)
VH: QIQLVQSGSELKKPGASVKVSCKASGYTFTDYSMHWVRQAPGQGLKWMGWINTETGEPTYADDFKGRFVFSLDTSVSTAYLQISSLKAEDTAVYYCARIPLYYYGSRYWYFDVWGQGTTVTVSS
VL: EIVMTQSPATLSVSPGERATLSCRASENIYRNLAWYQQKPGQSPRLLIYAATNLADGIPARFSGSGSGTEYTLTISSLQSEDFAVYYCQHFWGTPWTFGQGTKVEIK
modifications: synthetic humanized antibody heavy chain variable region sequence; synthetic humanized antibody light chain variable region sequence
In general, Kd refers to a measure of binding affinity in units of concentration. In the case of B1, in assay [1], the ka worked out at 290000 M⁻¹ s⁻¹, the kd was found to be 0.00027 s⁻¹ and the Kd turned out to be 0.93 nM. Besides, the “hEphA2-SEAP-: absorbance at 450 nm, percentage with respect to hEphA4-SEAP-His as 100%” value in assay [2] came out at 5.7%. The “hEphA6-SEAP-: absorbance at 450 nm, percentage with respect to hEphA4-SEAP-His as 100%” value in assay [3] turned out to be 7.4%.

B2: 152 (antibody, V domains shown)
VH: QVQLVQSGSELKKPGASVKVSCKASGYTFTDYSMHWVRQAPGQGLEWMGWINTETGEPTYAQGFTGRFVFSLDTSVSTAYLQISSLKAEDTAVYYCARIPLYYYGSRYWYFDVWGQGTTVTVSS
VL: DIQMTQSPSSLSASVGDRVTITCRASENIYRNLAWYQQKPGKAPKLLLYAATNLADGVPSRFSGSGSGTDYTLTISSLQSEDFATYYCQHFWGTPWTFGQGTKVEIK
modifications: synthetic humanized antibody heavy chain variable region sequence; synthetic humanized antibody light chain variable region sequence
In the case of B2, in assay [1], the ka came to 400000 M⁻¹ s⁻¹, the kd is 0.00082 s⁻¹ and the Kd amounted to 2 nM. Moreover, the “hEphA2-SEAP-: absorbance at 450 nm, percentage with respect to hEphA4-SEAP-His as 100%” value in assay [2] stood at 5.8%. Also, in assay [3], the “hEphA6-SEAP-: absorbance at 450 nm, percentage with respect to hEphA4-SEAP-His as 100%” value was found to be 8.3%.

B3: 140 (antibody, V domains shown)
VH: QVQLVQSGSELKKPGASVKVSCKASGYTFTDYSMHWVRQAPGQGLKWMGWINTETGEPTYAQGFTGRFVFSLDTSVSTAYLQISSLKAEDTAVYYCARIPLYYYGSRYWYFDVWGQGTTVTVSS
VL: DIQMTQSPSSLSASVGDRVTITCRASENIYRNLAWYQQKPGKAPKLLVYAATNLADGVPSRFSGSGSGTDYTLTISSLQPEDFATYYCQHFWGTPWTFGQGTKVEIK
modifications: synthetic humanized antibody heavy chain variable region sequence; synthetic humanized antibody light chain variable region sequence
Consider B3, for which, in assay [1], the ka turned out to be 320000 M⁻¹ s⁻¹, the kd amounted to 0.00043 s⁻¹ and binding was put at a Kd of 1.4 nM. The “hEphA2-SEAP-: absorbance at 450 nm, percentage with respect to hEphA4-SEAP-His as 100%” value in assay [2] came out at 5.3%. Moreover, in assay [3], the “hEphA6-SEAP-: absorbance at 450 nm, percentage with respect to hEphA4-SEAP-His as 100%” value was 10.8%.

B4: 138 (antibody, V domains shown)
VH: QIQLVQSGSELKKPGASVKVSCKASGYTFTDYSMHWVRQAPGQGLKWMGWINTETGEPTYAQGFTGRFVFSLDTSVSTAYLQISSLKAEDTAVYYCARIPLYYYGSRYWYFDVWGQGTTVTVSS
VL: DIQMTQSPSSLSASVGDRVTITCRASENIYRNLAWYQQKPGKAPKLLVYAATNLADGVPSRFSGSGSGTDYTLTISSLQPEDFATYYCQHFWGTPWTFGQGTKVEIK
modifications: synthetic humanized antibody heavy chain variable region sequence; synthetic humanized antibody light chain variable region sequence
On to B4, for which, in assay [1], the ka was 330000 M⁻¹ s⁻¹ and 290000 M⁻¹ s⁻¹; the kd was 0.00043 s⁻¹ and 0.00039 s⁻¹; the Kd is 1.3 nM and 1.4 nM. Moreover, the “hEphA2-SEAP-: absorbance at 450 nm, percentage with respect to hEphA4-SEAP-His as 100%” value in assay [2] turned out to be 5.0%. For the same molecule, in assay [3], the “hEphA6-SEAP-: absorbance at 450 nm, percentage with respect to hEphA4-SEAP-His as 100%” value stood at 10.2%.

B5: 143 (antibody, V domains shown)
VH: QIQLVQSGSELKKPGASVKVSCKASGYTFTDYSMHWVRQAPGQGLKWMGWINTETGEPTYADDFKGRFVFSLDTSVSTAYLQISSLKAEDTAVYYCARIPLYYYGSRYWYFDVWGQGTTVTVSS
VL: DIQMTQSPSSLSASVGDRVTITCRASENIYRNLAWYQQKPGKAPKLLVYAATNLADGVPSRFSGSGSGTDYTLTISSLQPEDFATYYCQHFWGTPWTFGQGTKVEIK
modifications: synthetic humanized antibody heavy chain variable region sequence; synthetic humanized antibody light chain variable region sequence
In assay [1], B5 returned a ka of 350000 M⁻¹ s⁻¹, a kd of 0.00051 s⁻¹ and an equilibrium dissociation constant (Kd) of 1.5 nM. For the same molecule, the “hEphA2-SEAP-: absorbance at 450 nm, percentage with respect to hEphA4-SEAP-His as 100%” value in assay [2] is 5.7%. Besides, the “hEphA6-SEAP-: absorbance at 450 nm, percentage with respect to hEphA4-SEAP-His as 100%” value in assay [3] is 9.9%.

B6: 142 (antibody, V domains shown)
VH: QVQLVQSGSELKKPGASVKVSCKASGYTFTDYSMHWVRQAPGQGLKWMGWINTETGEPTYADDFKGRFVFSLDTSVSTAYLQISSLKAEDTAVYYCARIPLYYYGSRYWYFDVWGQGTTVTVSS
VL: DIQMTQSPSSLSASVGDRVTITCRASENIYRNLAWYQQKPGKAPKLLVYAATNLADGVPSRFSGSGSGTDYTLTISSLQPEDFATYYCQHFWGTPWTFGQGTKVEIK
modifications: synthetic humanized antibody heavy chain variable region sequence; synthetic humanized antibody light chain variable region sequence
In assay [1], B6 came in with a ka of 340000 M⁻¹ s⁻¹, a kd of 0.0005 s⁻¹ and a Kd of 1.5 nM. Also, in assay [2], the “hEphA2-SEAP-: absorbance at 450 nm, percentage with respect to hEphA4-SEAP-His as 100%” value stood at 5.6%. Also, in assay [3], the “hEphA6-SEAP-: absorbance at 450 nm, percentage with respect to hEphA4-SEAP-His as 100%” value is recorded as 9.7%.

B7: 141 (antibody, V domains shown)
VH: QVQLVQSGSELKKPGASVKVSCKASGYTFTDYSMHWVRQAPGQGLEWMGWINTETGEPTYADDFKGRFVFSLDTSVSTAYLQISSLKAEDTAVYYCARIPLYYYGSRYWYFDVWGQGTTVTVSS
VL: DIQMTQSPSSLSASVGDRVTITCRASENIYRNLAWYQQKPGKAPKLLVYAATNLADGVPSRFSGSGSGTDYTLTISSLQPEDFATYYCQHFWGTPWTFGQGTKVEIK
modifications: synthetic humanized antibody heavy chain variable region sequence; synthetic humanized antibody light chain variable region sequence
In assay [1], B7 came in with a ka of 390000 M⁻¹ s⁻¹, a kd of 0.00062 s⁻¹ and a Kd of 1.6 nM. Moreover, the “hEphA2-SEAP-: absorbance at 450 nm, percentage with respect to hEphA4-SEAP-His as 100%” value in assay [2] turned out to be 5.2%. Also, the “hEphA6-SEAP-: absorbance at 450 nm, percentage with respect to hEphA4-SEAP-His as 100%” value in assay [3] is on record as 9.0%.

B8: 139 (antibody)
VH: QVQLVQSGSELKKPGASVKVSCKASGYTFTDYSMHWVRQAPGQGLEWMGWINTETGEPTYAQGFTGRFVFSLDTSVSTAYLQISSLKAEDTAVYYCARIPLYYYGSRYWYFDVWGQGTTVTVSS
VL: DIQMTQSPSSLSASVGDRVTITCRASENIYRNLAWYQQKPGKAPKLLVYAATNLADGVPSRFSGSGSGTDYTLTISSLQPEDFATYYCQHFWGTPWTFGQGTKVEIK
chain: ASTKGPSVFPLAPSSRSTSESTAALGCLVKDYFPEPVTVSWNSGALTSGVHTFPAVLQSSGLYSLSSVVTVPSSNFGTQTYTCNVDHKPSNTKVDKTVERKSCVECPPCPAPPAAAPSVFLFPPKPKDTLMISRTPEVTCVVVDVSHEDPEVQFNWYVDGVEVHNAKTKPREEQFNSTFRVVSVLTVVHQDWLNGKEYKCKVSNKGLPAPIEKTISKTKGQPREPQVYTLPPSREEMTKNQVSLTCLVKGFYPSDIAVEWESNGQPENNYKTTPPMLDSDGSFFLYSKLTVDKSRWQQGNVFSCSVMHEALHNHYTQKSLSLSPG
modifications: synthetic humanized antibody heavy chain variable region sequence; synthetic humanized antibody light chain variable region sequence; synthetic antibody constant region sequence
In assay [1], B8 yielded a ka of 370000 M⁻¹ s⁻¹, a kd of 0.00053 s⁻¹ and a Kd of 1.4 nM. Besides, in assay [2], the “hEphA2-SEAP-: absorbance at 450 nm, percentage with respect to hEphA4-SEAP-His as 100%” value was 5.9%. Further, in assay [3], the “hEphA6-SEAP-: absorbance at 450 nm, percentage with respect to hEphA4-SEAP-His as 100%” value came to 10.0%.
